This note sets out measurements from the supplement of paper PMC7877785.

The series in a line: self-splicing fitness, log relative to wild type (ln ratio); higher = more splicing; Tetrahymena group I intron in knt gene, E. coli kanamycin selection, DiMSum; sequences stand for … in CUCUCU…GGAGGGAAAAGUUAUCAGGCAUGCACCUGGUAGCUAGUCUUUAAACCAAUAGAUUGCAUCGGUUUAAAAGGCAAGACCGUCAAAUUGCGGGAAAGGGGUCAACAGCCGUUCAGUACCAAGUCUCAGGGGAAACUUUGAGAUGGCCUUGCAAAGGGUAUGGUAAUAAGCUGACGGACAUGGUCCUAACCACGCAGCCAAGUCCUAAGUCAACAGAUCUUCUGUUGAUAUGGAUGCAGUUCACAGACUAAAUGUCGGUCGGGGAAGAUGUAUUCUUCUCAUAAGAUAUAGUCGGACCUCUCCUUAAUGGGAGCUAGCGGAUGAAGUGAUGCAACACUGGAGCCGCUGGGAACUAAUUUGUAUGCGAAAGUAUAUUGAUUAGUUUUGGAGUACUCGUGGUCG
In short, it runs like this:
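A randomised library covering all eight P1ex-region intron nucleotides was built with the intron in the knt kanamycin-resistance gene on pET-22b(+) and held in E. coli BL21(DE3). Cells were grown overnight at 37°C or 30°C on LB agar, with or without 25 μg/mL kanamycin, plus 100 μg/mL carbenicillin, 50 μM IPTG and 0.2% rhamnose, and pooled colonies were amplicon-sequenced on an Illumina HiSeq 2500. DiMSum fitness is the error-weighted combination of wild-type-normalised replicate fold changes, kanamycin versus none.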

± gives the uncertainty stated by the source.

On to GGCAAGCAAUAUUACGAUUU, for which the “self-splicing fitness (ln)” value reads like this: (30 °C) -0.299 ± 0.058; (37 °C) 0.164 ± 0.077.
As to UGCUAGCAAUAUUACGUCGC, the “self-splicing fitness (ln)” value is, setting by setting: (30 °C) -3.37 ± 0.2; (37 °C) -2.65 ± 0.41.
Consider UUUAAGCAAUAUUACGCCUU, for which the “self-splicing fitness (ln)” value was -0.228 ± 0.34 (30 °C) and -1.35 ± 0.36 (37 °C).
Take AAUUAGCAAUAUUACGAACG: the “self-splicing fitness (ln)” value is -0.548 ± 0.13 (30 °C) and -0.153 ± 0.19 (37 °C).
For UGGCAGCAAUAUUACGCGCA, in that order: -0.259 ± 0.14 and 0.284 ± 0.15.
For CACAAGCAAUAUUACGCGAG, in that order: -1.89 ± 0.092 and -0.699 ± 0.091.
As to GCGGAGCAAUAUUACGUGGG, the “self-splicing fitness (ln)” value (30 °C) was -2.01 ± 0.3 and the “self-splicing fitness (ln)” value (37 °C) was -2.25 ± 0.34.
On the same counts, the results for GGAAAGCAAUAUUACGAGUA are -2.38 ± 0.22 and -0.9 ± 0.19.
On the same counts, the results for CUGUAGCAAUAUUACGAGUU are -2.02 ± 0.3 and -3.02 ± 0.37.
On the same counts, the results for CGGUAGCAAUAUUACGCUCU are -2.71 ± 0.24 and -2.43 ± 0.33.
Consider AUUGAGCAAUAUUACGAUUC, for which the “self-splicing fitness (ln)” value (30 °C) was -2.51 ± 0.22 and the “self-splicing fitness (ln)” value (37 °C) is -2.86 ± 0.47.
For AAUGAGCAAUAUUACGUUUG, the “self-splicing fitness (ln)” value is, setting by setting: (30 °C) -4.24 ± 0.2; (37 °C) -2.33 ± 0.19.
Take CCCCAGCAAUAUUACGUGUA: the “self-splicing fitness (ln)” value was -3.17 ± 0.11 (30 °C) and -2.75 ± 0.13 (37 °C).
For UGCUAGCAAUAUUACGGAUU, in that order: -1.7 ± 0.14 and -2.02 ± 0.13.
For UGCCAGCAAUAUUACGGGAG, in that order: -2.75 ± 0.11 and -0.763 ± 0.1.
On the same counts, the results for CCGGAGCAAUAUUACGCCUA are -2.12 ± 0.26 and -2.59 ± 0.29.
As to UCCGAGCAAUAUUACGGGCC, the “self-splicing fitness (ln)” value was -3.8 ± 0.3 (30 °C) and -2.94 ± 0.35 (37 °C).
On the same counts, the results for GAGAAGCAAUAUUACGCCCG are -2.15 ± 0.19 and 0.00226 ± 0.24.
For UUUCAGCAAUAUUACGUUCG, in that order: -1.09 ± 0.085 and -0.545 ± 0.13.
With GAGUAGCAAUAUUACGAUGC, the “self-splicing fitness (ln)” value is, setting by setting: (30 °C) -1.79 ± 0.23; (37 °C) -0.495 ± 0.26.
Take UGAAAGCAAUAUUACGCACU: the “self-splicing fitness (ln)” value was -0.504 ± 0.094 (30 °C) and 0.371 ± 0.11 (37 °C).
In the case of UGUGAGCAAUAUUACGCCGU, the “self-splicing fitness (ln)” value (37 °C) is -1.71 ± 0.47.
Consider UGAAAGCAAUAUUACGAUUC, for which the “self-splicing fitness (ln)” value (30 °C) is -2.53 ± 0.18 and the “self-splicing fitness (ln)” value (37 °C) was -2 ± 0.22.
For CCUGAGCAAUAUUACGACGU, in that order: -2.28 ± 0.14 and -0.0399 ± 0.14.
For UCGUAGCAAUAUUACGCCUU, in that order: -2.21 ± 0.13 and -0.619 ± 0.13.
On the same counts, the results for GGCCAGCAAUAUUACGCAAC are -1.19 ± 0.1 and -0.97 ± 0.12.
Turning to ACACAGCAAUAUUACGACAC, the “self-splicing fitness (ln)” value runs as follows: (30 °C) -1.35 ± 0.081; (37 °C) 0.0205 ± 0.11.
For GAGGAGCAAUAUUACGUCCA, in that order: -1.23 ± 0.12 and -0.83 ± 0.16.
For UGAGAGCAAUAUUACGGCGU, in that order: -4.04 ± 0.35 and -2.81 ± 0.34.
As for CGCAAGCAAUAUUACGUAGC, the “self-splicing fitness (ln)” value is -3.3 ± 0.17 (30 °C) and -1.17 ± 0.18 (37 °C).
On the same counts, the results for GUCUAGCAAUAUUACGGGUA are -1.28 ± 0.11 and -0.285 ± 0.09.
On the same counts, the results for GGUCAGCAAUAUUACGCCUU are -0.559 ± 0.051 and 0.122 ± 0.069.
On to UCAAAGCAAUAUUACGUCAA, for which the “self-splicing fitness (ln)” value was -2.84 ± 0.23 (30 °C) and -2.71 ± 0.29 (37 °C).
As for AUGCAGCAAUAUUACGAUCG, the “self-splicing fitness (ln)” value runs as follows: (30 °C) -1.8 ± 0.084; (37 °C) -1.16 ± 0.11.
On the same counts, the results for CCAGAGCAAUAUUACGUUUU are -3.06 ± 0.18 and -2.62 ± 0.21.
For GUAGAGCAAUAUUACGUCUU, in that order: -0.122 ± 0.075 and 0.195 ± 0.083.
For GGGGAGCAAUAUUACGUUUC, in that order: -2.65 ± 0.2 and -2.64 ± 0.29.
On to CAGCAGCAAUAUUACGGCGC, for which the “self-splicing fitness (ln)” value runs as follows: (30 °C) -2.93 ± 0.35; (37 °C) -1.51 ± 0.2.
For CUCAAGCAAUAUUACGCCCG, in that order: -0.954 ± 0.17 and -2.11 ± 0.21.
For UUAAAGCAAUAUUACGGGAG, in that order: -1.34 ± 0.08 and -0.293 ± 0.12.
For AGUGAGCAAUAUUACGGAAU, in that order: -3.11 ± 0.18 and -2.16 ± 0.13.
Consider CUGCAGCAAUAUUACGCGCC, for which the “self-splicing fitness (ln)” value is, setting by setting: (30 °C) -3.33 ± 0.33; (37 °C) -2.17 ± 0.24.
On the same counts, the results for UGCCAGCAAUAUUACGCCAG are -3.29 ± 0.18 and -2.39 ± 0.27.
On the same counts, the results for ACCUAGCAAUAUUACGUUGU are -1.79 ± 0.066 and -1.12 ± 0.082.
For UAAGAGCAAUAUUACGUUCU, in that order: -3.45 ± 0.28 and -1.55 ± 0.19.
On to GGUUAGCAAUAUUACGAGCG, for which the “self-splicing fitness (ln)” value is, setting by setting: (30 °C) -0.684 ± 0.12; (37 °C) -0.0379 ± 0.12.
On the same counts, the results for UUGAAGCAAUAUUACGAUUU are -1.58 ± 0.17 and -0.941 ± 0.18.
GCUGAGCAAUAUUACGGCCC: for the setting “37 °C”, the “self-splicing fitness (ln)” value was -2.32 ± 0.35.
Take UUUUAGCAAUAUUACGUCGG: the “self-splicing fitness (ln)” value reads like this: (30 °C) -1.95 ± 0.15; (37 °C) -0.321 ± 0.17.
Turning to CAAUAGCAAUAUUACGCCAA, the “self-splicing fitness (ln)” value (30 °C) is -2.96 ± 0.22 and the “self-splicing fitness (ln)” value (37 °C) is -2.76 ± 0.2.
For ACUCAGCAAUAUUACGAGGA, in that order: -1.67 ± 0.11 and -0.591 ± 0.095.
As to GCUGAGCAAUAUUACGGAGA, the “self-splicing fitness (ln)” value by setting is: (30 °C) -2.79 ± 0.43; (37 °C) -1.85 ± 0.28.
On the same counts, the results for UUACAGCAAUAUUACGCUAG are -0.779 ± 0.11 and -0.391 ± 0.11.
In the case of GAGAAGCAAUAUUACGGGAC, the “self-splicing fitness (ln)” value reads like this: (30 °C) -2.56 ± 0.13; (37 °C) -1.37 ± 0.12.
On the same counts, the results for CCCAAGCAAUAUUACGCAUG are -3.29 ± 0.2 and -2.34 ± 0.22.
On the same counts, the results for UGAUAGCAAUAUUACGCAAA are -2.25 ± 0.19 and -0.0467 ± 0.16.
For CUCAAGCAAUAUUACGUGCA, in that order: -3.43 ± 0.26 and -1.85 ± 0.19.
In the case of UUCGAGCAAUAUUACGACGU, the “self-splicing fitness (ln)” value (30 °C) was -3.55 ± 0.24 and the “self-splicing fitness (ln)” value (37 °C) was -1.85 ± 0.14.
For UGUGAGCAAUAUUACGUCCG, in that order: -0.363 ± 0.12 and -0.0626 ± 0.17.
On the same counts, the results for GGAUAGCAAUAUUACGUUAA are -2.35 ± 0.16 and -1.9 ± 0.16.
